Measurements published in patent US20260216242A1, “ALPP-SPECIFIC VARIANT ANTIGEN BINDING MOLECULES” (ALMAC DISCOVERY LIMITED, priority 2022, published 2026).

Key:
[1] = biological target: T1, ALPP expressed on the surface of CHO cells (CHO-ALPP) (Homo sapiens, UniProt P05187); assay: Cell-surface binding by flow cytometry, CHO-ALPP; details: VHH proteins
T1 construct: expressed in transfected cells
Protocol: (§1) C-terminal His tagged VHH proteins were assessed for ALPP, ALPPL2, ALPI and ALPL cell-surface binding by flow cytometry. Binders encompassing different epitope bins were screened on CHO cells stably expressing ALPP, ALPPL2, ALPI or ALPL. High levels of cell-surface proteins expression were confirmed for each of the cell-lines by flow cytometry.
(§2) Cell surface binding of test agents to hALPP isoforms was characterized in four CHO-ALPP isoform stably transfected cell lines (CHO-ALPP, CHO-ALPPL2, CHO-ALPI and CHO-ALPL) and the resulting KDapp values determined. Adherent cells were detached from tissue culture flasks by incubating with 0.1% EDTA/PBS solution at 37° C. for ~10 minutes or until cells detached easily. […] Binding of VHH (His6 tagged) agents was determined by adding 100 μl of anti-x6His tag Ab (Abcam) per cell pellet sample as appropriate and incubating on ice for 30 mins. […]
(§3) VHH-hFc proteins were assessed for human ALPP, ALPPL2, ALPI and ALPL cell-surface binding by flow cytometry. […]
(§4) Cell surface binding of test agents to hALPP isoforms was characterized in four CHO-ALPP isoform transfectant cell lines (CHO-ALPP, CHO-ALPPL2, CHO-ALPI and CHO-ALPL) and the resulting KDapp values determined. […] Binding of VHH-hFc agents was determined by adding 100 μl of Fitc-anti-human Ab (ThermoFisher) and incubating for 30 mins on ice in the dark. […]

[2] = biological target: T2, ALPPL2 expressed on the surface of CHO cells (CHO-ALPPL2) (Homo sapiens, UniProt P10696); assay: Cell-surface binding by flow cytometry, CHO-ALPPL2; details: VHH His proteins
T2 construct: expressed in transfected cells
T2 sequence (P10696 20-503 limits assumed): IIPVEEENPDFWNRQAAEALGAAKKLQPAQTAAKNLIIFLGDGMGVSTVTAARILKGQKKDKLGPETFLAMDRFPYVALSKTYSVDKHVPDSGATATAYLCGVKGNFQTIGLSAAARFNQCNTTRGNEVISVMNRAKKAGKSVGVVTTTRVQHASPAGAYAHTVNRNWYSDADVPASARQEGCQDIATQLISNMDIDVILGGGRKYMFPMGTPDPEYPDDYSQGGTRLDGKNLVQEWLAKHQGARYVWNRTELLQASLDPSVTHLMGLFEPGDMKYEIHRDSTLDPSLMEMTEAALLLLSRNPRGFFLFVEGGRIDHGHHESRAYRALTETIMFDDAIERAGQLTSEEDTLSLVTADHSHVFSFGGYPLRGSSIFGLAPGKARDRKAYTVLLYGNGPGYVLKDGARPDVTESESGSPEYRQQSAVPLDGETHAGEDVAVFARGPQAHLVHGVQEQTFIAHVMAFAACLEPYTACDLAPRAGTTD
Protocol: as §1, §2, §3, §4

T1 sequence (P05187 23-506 limits assumed): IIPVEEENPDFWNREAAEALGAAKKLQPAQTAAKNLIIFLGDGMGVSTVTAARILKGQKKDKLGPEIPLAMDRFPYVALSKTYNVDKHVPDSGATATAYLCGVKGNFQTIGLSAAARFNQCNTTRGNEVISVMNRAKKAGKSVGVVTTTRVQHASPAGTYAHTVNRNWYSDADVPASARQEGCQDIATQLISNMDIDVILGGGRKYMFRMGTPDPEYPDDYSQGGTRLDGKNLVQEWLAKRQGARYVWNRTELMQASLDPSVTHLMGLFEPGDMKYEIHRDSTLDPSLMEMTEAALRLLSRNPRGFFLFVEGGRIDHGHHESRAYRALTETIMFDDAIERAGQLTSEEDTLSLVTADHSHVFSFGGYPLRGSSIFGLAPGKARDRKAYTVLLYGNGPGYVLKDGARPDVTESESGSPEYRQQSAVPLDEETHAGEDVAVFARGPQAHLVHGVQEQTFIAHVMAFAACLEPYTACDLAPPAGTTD

binding preference ALPP versus ALPPL2 on CHO cells [1]: preferential binding to ALPP over ALPPL2 | KDapp CHO-ALPPL2 [2]: Binding
B1: D10: ALPP targeting VHH domain, SEQ ID NO: 28 (protein)
VHH: QVQLVESGGGLVQPGGSLRLSCAASGSIFSVNTMGWYRQAPGKQRDLVAVATSGGTIHYADSVKGRFTISRDNAKNTVYLQMNSLKPEDTAVYYCNLVVPYGMIAGDHDYWGQGTKVTVSS
